Assay results as given in publication doi:10.1101/2022.03.06.483192, “Structural maturation of SYCP1-mediated meiotic chromosome synapsis through conformational remodelling by molecular adapter SYCE3” (bioRxiv, 2022).
Changes are numbered by the printed parent chain. Several values for one entry are separate records, joined by “and”; a condition that tells them apart may be missing. Equal values may be shown once.

T1: SYCP1αN ΔNtip (UniProt Q15431 112-362)
T1 construct: SYCP1αN (101-362) with the αNtip (amino-acids 101-111) deleted; also called SYCP1 ΔNtip; source: E. coli BL21(DE3), co-expressed with SYCE3, complex purified
T1 sequence (looked up): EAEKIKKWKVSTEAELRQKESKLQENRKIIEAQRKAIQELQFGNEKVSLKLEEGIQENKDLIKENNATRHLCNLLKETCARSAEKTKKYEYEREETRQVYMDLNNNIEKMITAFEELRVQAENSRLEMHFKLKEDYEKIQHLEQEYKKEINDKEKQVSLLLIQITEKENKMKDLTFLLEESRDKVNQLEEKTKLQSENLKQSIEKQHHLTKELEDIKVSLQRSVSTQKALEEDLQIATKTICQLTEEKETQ

T2: SYCP1αN V105E L109E (UniProt Q15431 101-362, V105E | L109E)
T2 construct: SYCP1αN, amino-acids 101-362, with V105E L109E; source: E. coli BL21(DE3), complex with SYCE3
T2 sequence (looked up): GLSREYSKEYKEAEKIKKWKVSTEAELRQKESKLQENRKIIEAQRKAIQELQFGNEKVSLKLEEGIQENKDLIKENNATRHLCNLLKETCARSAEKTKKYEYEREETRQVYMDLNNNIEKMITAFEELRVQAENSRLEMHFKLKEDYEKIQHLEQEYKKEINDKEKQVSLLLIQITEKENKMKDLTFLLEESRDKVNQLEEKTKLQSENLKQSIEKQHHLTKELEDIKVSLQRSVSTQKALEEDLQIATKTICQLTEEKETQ

T3: SYCE2-TEX12core, labelled (UniProt Q6PIF2 57-165; Q9BXU0 49-123, labelled with the Monolith NT Protein Labelling Kit RED (which chain is not told) | labelled with the Monolith NT Protein Labelling Kit RED (which chain is not told))
T3 construct: SYCE2 structural core; TEX12 structural core; source: E. coli BL21(DE3), purified
T3 sequence (looked up) 1: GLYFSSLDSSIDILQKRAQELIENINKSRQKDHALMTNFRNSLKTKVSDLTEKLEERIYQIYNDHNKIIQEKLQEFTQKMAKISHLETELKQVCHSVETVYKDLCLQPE
T3 sequence (looked up) 2: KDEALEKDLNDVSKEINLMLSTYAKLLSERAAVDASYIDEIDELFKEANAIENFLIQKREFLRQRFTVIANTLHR

T4: MBP-SYCP1αNcore (UniProt Q15431 206-362)
T4 construct: SYCP1 tetrameric core (αNcore), amino-acids 206-362; also called MBP-SYCP1 (amino-acids 206-362); source: E. coli BL21(DE3), co-expressed with SYCE3 constructs; in lysate for the pull-down, co-purified (amylose, anion exchange, SEC); not shown: MBP, N-terminal, kept
T4 sequence (looked up): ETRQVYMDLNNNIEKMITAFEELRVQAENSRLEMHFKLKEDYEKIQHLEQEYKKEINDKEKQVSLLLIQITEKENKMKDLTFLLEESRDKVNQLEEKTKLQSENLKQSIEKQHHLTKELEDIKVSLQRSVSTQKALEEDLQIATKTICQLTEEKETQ

T5: MBP-SYCP1αN (UniProt Q15431 101-362)
T5 construct: SYCP1αN, amino-acids 101-362; source: E. coli BL21(DE3), co-expressed with His-SYCE3, complex purified
T5 sequence (looked up): T2 sequence (looked up) with E5V, E9L

B1: SYCP1αNcore (domain or fragment, UniProt Q15431 206-362, looked up)
chain: T4 sequence (looked up)
notes: SYCP1 tetrameric core (αNcore), amino-acids 206-362; tetramer alone by SEC-MALS; two chains in the 2:1 complex with SYCE3; also called SYCP1 tetrameric core; SYCP1αNT; source: E. coli BL21(DE3), purified (amylose, TEV cleavage, anion exchange, SEC); alone or co-expressed with SYCE3; not shown: MBP, N-terminal, cleaved
B2: SYCE3 (natural protein, UniProt A1L190 1-88, looked up)
chain: MDDADPEERNYDNMLKMLSDLNKDLEKLLEEMEKISVQATWMAYDMVVMRTNPTLAESMRRLEDAFVNCKEEMEKNWQELLHETKQRL
notes: SYCE3, wild type; dimer alone by SEC-MALS; one chain in the 2:1 complex with SYCP1; also called SYCE3 wild-type; free SYCE3; source: alone or co-expressed with SYCP1 constructs; not shown: His, N-terminal, cleaved
B3: SYCE3 12-88 (domain or fragment, UniProt A1L190 12-88, looked up)
chain: DNMLKMLSDLNKDLEKLLEEMEKISVQATWMAYDMVVMRTNPTLAESMRRLEDAFVNCKEEMEKNWQELLHETKQRL
notes: SYCE3 residues 12-88; source: E. coli BL21(DE3), co-expressed with SYCP1αNcore, complex purified
B4: His-SYCE3 (natural protein, UniProt A1L190 1-88, looked up)
chain: B2 chain
notes: SYCE3, wild type; SYCE3 1-88 (human) was cloned for the two-hybrid; also called SYCE3 wild-type (WT); source: E. coli BL21(DE3), co-expressed with MBP fusions; in lysate for pull-downs, co-purified (amylose, anion exchange, SEC); not shown: His, N-terminal, kept
B5: SYCP1 αCore-ΔNtip (domain or fragment, UniProt Q15431 112-783, looked up)
chain: EAEKIKKWKVSTEAELRQKESKLQENRKIIEAQRKAIQELQFGNEKVSLKLEEGIQENKDLIKENNATRHLCNLLKETCARSAEKTKKYEYEREETRQVYMDLNNNIEKMITAFEELRVQAENSRLEMHFKLKEDYEKIQHLEQEYKKEINDKEKQVSLLLIQITEKENKMKDLTFLLEESRDKVNQLEEKTKLQSENLKQSIEKQHHLTKELEDIKVSLQRSVSTQKALEEDLQIATKTICQLTEEKETQMEESNKARAAHSFVVTEFETTVCSLEELLRTEQQRLEKNEDQLKILTMELQKKSSELEEMTKLTNNKEVELEELKKVLGEKETLLYENKQFEKIAEELKGTEQELIGLLQAREKEVHDLEIQLTAITTSEQYYSKEVKDLKTELENEKLKNTELTSHCNKLSLENKELTQETSDMTLELKNQQEDINNNKKQEERMLKQIENLQETETQLRNELEYVREELKQKRDEVKCKLDKSEENCNNLRKQVENKNKYIEELQQENKALKKKGTAESKQLNVYEIKVNKLELELESAKQKFGEITDTYQKEIEDKKISEENLLEEVEKAKVIADEAVKLQKEIDKRCQHKIAEMVALMEKHKHQYDKIIEERDSELGLYKSKEQEQSSLRASLEIELSNLKAELLSVKKQLEIEREEKEKLKREAKE
notes: SYCP1 α-helical core without the αNtip, amino-acids 112-783; tetramer alone by SEC-MALS; also called SYCP1's full α-helical core, in which αNtips were deleted (amino-acids 112-783); source: E. coli BL21(DE3), purified; alone or in complex with SYCE3
B6: SYCP1αN (domain or fragment, UniProt Q15431 101-362, looked up)
chain: T2 sequence (looked up) with E5V, E9L
notes: SYCP1 α-helical N-terminal region (αN), amino-acids 101-362; also called SYCP1's full α-helical N-terminal region (amino-acids 101-362); source: E. coli BL21(DE3), purified; alone or co-expressed with SYCE3

What was measured:
[1] = target: the molecule itself; assay: SEC-MALS; purified proteins or co-expressed, purified complexes at 5-20 mg/ml; Superdex 200 Increase 10/300 GL, 20 mM Tris pH 8.0, 150 mM KCl, 2 mM DTT
[2] = target: T1, SYCP1αN ΔNtip; assay: as above; conditions: both partners purified
[3] = target: B5; assay: as above; conditions: both partners purified
[4] = target: B6; assay: as above; conditions: both partners purified
[5] = target: T2, SYCP1αN V105E L109E; assay: as above; conditions: both partners purified
[6] = target: B1; assay: as above; conditions: both partners purified
[7] = target: B1; assay: ITC; SYCE3 (400 µM) injected into SYCP1αNcore (70 µM); 30°C; 25 mM Tris pH 8.0, 250 mM KCl, 2 mM DTT; apparent; conditions: both partners purified
[8] = target: T3, SYCE2-TEX12core, labelled; assay: MST; SYCE3 titrated (1:1 dilutions) into 150 nM labelled SYCE2-TEX12core; Monolith NT.115, premium treated capillaries, excitation and MST power 40 %; apparent; conditions: both partners purified
[9] = target: T4, MBP-SYCP1αNcore; assay: SEC-MALS; purified proteins or co-expressed, purified complexes at 5-20 mg/ml; Superdex 200 Increase 10/300 GL, 20 mM Tris pH 8.0, 150 mM KCl, 2 mM DTT; conditions: both partners purified
[10] = target: T5, MBP-SYCP1αN; assay: SEC-MALS; MBP-SYCP1αN-His-SYCE3 complex on a Superose 6 increase 10/300 GL column; conditions: both partners purified

## B1
[1]
  stoichiometry N: 4

## B2
[2]
  stoichiometry N: 2 SYCP1 chains per SYCE3 chain
[3]
  stoichiometry N: 2 SYCP1 chains per SYCE3 chain
[4]
  stoichiometry N: 2 SYCP1 chains per SYCE3 chain (2:1 species) and 2 SYCP1 chains per SYCE3 chain (4:2 species: 4 SYCP1, 2 SYCE3)
[1]
  stoichiometry N: 2
[5]
  stoichiometry N: 2 SYCP1 chains per SYCE3 chain
[6]
  stoichiometry N: 2 SYCP1 chains per SYCE3 chain
[7]
  Kd: 0.17 µM
[8]
  Kd: 21.8 µM

## B3
[6]
  stoichiometry N: 2 SYCP1 chains per SYCE3 chain

## B4
[9]
  stoichiometry N: 2 SYCP1 chains per SYCE3 chain
[10]
  stoichiometry N: 2 SYCP1 chains per SYCE3 chain (2:1 species) and 2 SYCP1 chains per SYCE3 chain (4:2 species: 4 SYCP1, 2 SYCE3)

## B5
[1]
  stoichiometry N: 4

## B6
[1]
  binding result: binds
